Data as given in patent publication US12544428B2, “Controlled-release CNP agonists with reduced side-effects” (ASCENDIS PHARMA GROWTH DISORDERS A/S, priority 2016, dated 2026).

Legend:
[1] = 0.146 mg CNP-38 eq/kg
Procedure: Plasma total CNP-38 concentrations (conjugated and released CNP-38) were determined by quantification of the N-terminal signature peptide (sequence: […]) and C-terminal signature peptide (sequence: […]) after tryptic digestion.
LC-MS analysis was carried out by using an Agilent 1290 UPLC coupled to an Agilent 6550 iFunnel Q-TOF mass spectrometer via an ESI probe. Chromatography was performed on a Waters Acquity BEH300 C18 analytical column (50×2.1 mm I.D., 1.7 μm particle size) with pre-filter at a flow rate of 0.25 mL/min (T=25° C.). Water (UPLC grade) containing 0.2% formic acid (v/v) was used as mobile phase A and acetonitrile (UPLC grade) with 0.2% formic acid as mobile phase B. The gradient system comprised a short isocratic step at the initial parameters of 0.1% B for 3.0 min followed by a linear increase from 0.1% B to 16% B in 17 min. Mass analysis was performed in the single ion monitoring (SIM) mode, monitoring the ions m/z 482.75 [M+2H]^2+ (N-terminal) and m/z 824.36 [M+H]^1+ (C-terminal). As internal standard deuterated CNP-38 peptide was used.
Calibration standards of CNP-38 conjugate in blank plasma were prepared as follows: The thawed Li-heparin cynomolgous plasma was first homogenized, then centrifuged for 5 minutes. […] These solutions were used for the generation of a calibration curve.
For sample preparation, protein precipitation was carried out by addition of 300 μL of pre-cooled (0° C.) methanol to 100 μL of the plasma sample. 200 μL of the supernatant were transferred into a new well-plate and evaporated to dryness (under a gentle nitrogen stream at 35° C.). 100 μL of reconstitution solvent (Thermo digestion buffer, order number 60109-101, Thermo Fisher Scientific GmbH, Dreieich, Germany) were used to dissolve the residue. 20 μg of trypsin (order number V5111, Promega GmbH, Mannheim, Germany) were dissolved in 20 μL of 10 mM acetic acid. 2 μL of the trypsin solution were added to each cavity.
After 4 hours incubation at 37° C. (water bath), 5 μL of a 0.5 M TCEP solution were added to each cavity and incubated again for 5 min at 96° C. After the samples had cooled to room temperature, 3 μL acetonitrile were added. The eluates were transferred into vials. 10 μL were injected into the UPLC-MS system.
Male cynomolgus monkeys (2-4 years old, 3-5 kg) received either a single subcutaneous administration (n=3 animals) of compound 10f or a single subcutaneous (n=3 animals) administration of 11i at a dose of 0.146 mg CNP-38 eq/kg. Blood samples were collected up to 168 h post dose, and plasma was generated. Plasma levels of total CNP-38 content were analyzed as described in example 24. In order to analyze the plasma content of free CNP-38, the blood samples were acidified after withdrawal by adding 20 vol % of 0.5 M sodium citrate buffer pH 4 to stop further CNP-38 release from the conjugate. Free CNP-38 levels in plasma can e.g. be determined by ELISA using a CNP antibody that binds to the ring region of CNP, as described in the literature (U.S. Pat. No. 8,377,884 B2), or by LC-MS/MS.

[2] = Evaluation of cardiovascular effects in the conscious telemetered mouse (subcutaneous administration); assay type: in vivo, Crl:CD1(ICR) mice; details: for MAP: mean ± SD, n = 4
Excerpt: The purpose of this study was to evaluate the haemodynamic side effects of 11i at dose level equivalent to a CNP-38 dose level eliciting haemodynamic side effects (decrease in blood pressure) in the telemetered mouse.
Male Crl:CD1(ICR) mice (age range 8-13 weeks and body weight range 27.3-35.6 g at start of dosing) were surgically implanted with a TA11PA-C10 telemetry transmitter (Data Sciences International (DSI)) in the carotid artery. The body of the transmitter was placed subcutaneously in the lateral flank of the mouse. The mice were dosed subcutaneously in a latin square crossover design with at least 72 hours between dosing occasions. Mice were dosed with 1) vehicle (10 mM succinate, 46.0 g/L mannitol, pH 4.00), 2) CNP-38 (800 μg CNP-38/kg, 10 mM succinate, 46.0 g/L mannitol, pH 4.00) or 3) 11i (800 μg CNP-38 eq/kg, 10 mM succinate, 46.0 g/L mannitol, pH 4.00). At least four mice were included at each dose level. Blood pressure (systolic (SAP), diastolic (DAP) and mean (MAP) and heart rate (HR, derived from blood pressure), were recorded using a digital data capture system linked with a DSITM Ponemah data acquisition and analysis system. The capture system allowed recording of the cardiovascular parameters whilst the mice were in individual cages. On the day of each test session the animals were weighed and a predose recording was performed for at least 60 min prior to dosing. Each mouse was returned to the home cage and the cardiovascular parameters were recorded for approximately 48 hours postdose. Blood pressure and HR were reported at the following time points: −30, −20, −10, 5, 15 and 30 min postdose and 1, 2, 6, 12, 18, 24, 30, 36, 42 and 48 hours postdose. Each time point was presented as the average value of five minute's recording prior to the time point. The monitoring period was selected to cover exposure to the test items both prior to and after Tmax.

Reversible Lys26 CNP-38 PEG4×10 kDa Conjugate [Compound 11i]
dose site reactions ([1]; single sc): No dose site reactions were observed
terminal half life ([1]; single sc, C-terminal and N-terminal peptide): 72 to 96 h
total CNP-38 plasma level after 168 h ([1]; single sc, C-terminal peptide): ca. 30 % of cmax
total CNP-38 tmax ([1]; single subcutaneous administration): 24 h
HR ([2]; 800 μg CNP-38 (eq)/kg sc): not impacted
MAP versus vehicle at the remaining ten time points ([2]; 1 to 48 hours postdose, 800 μg CNP-38 (eq)/kg sc): no difference in MAP
change in MAP compared to predose ([2]; 5, 15 and 30 min post dose, 800 μg CNP-38 (eq)/kg sc, CNP-38: 3 of 4 animals): same physiological increase in MAP
MAP ([2]; 5 min post dose, 800 μg CNP-38 (eq)/kg sc): 122.8 ± 5.9 mmHg
MAP ([2]; 15 min post dose, 800 μg CNP-38 (eq)/kg sc): 121.5 ± 7.5 mmHg
MAP ([2]; 30 min post dose, 800 μg CNP-38 (eq)/kg sc): 111.5 ± 13.7 mmHg
MAP ([2]; predose, 800 μg CNP-38 (eq)/kg sc): 106.4 ± 10.7 mmHg
effect on blood pressure ([2]; subcutaneous, dosage equivalent to CNP-38 800 μg/kg): did not decrease blood pressure
